This is an account of results in patent US20230295308A1, “ANTAGONISTIC BIPARATOPIC ANTIBODIES THAT SPECIFICALLY BIND FIBROBLAST GROWTH FACTOR RECEPTOR 2 AND METHODS OF USING SAME” (The Broad Institute, Inc., priority 2020, published 2023).

The target in assay [1] is FGFR2 on SNU-16 gastric cancer cell line with FGFR2 amplification (UniProt P21802). The assay can be described thus: FACS on SNU-16 cells, % cells with FITC+ against log antibody concentration; Kd printed in the legend box [cont.].
In assay [2] the target is FGFR2b alpha IIIb antigen (UniProt P21802). The assay can be described thus: SPR (Biacore), antibody immobilized, FGFR2b alpha IIIb in flow.
For assay [3], the target named is FGFR2 on SNU-16 gastric cancer cell line with FGFR2 amplification (UniProt P21802). The assay can be described thus: FACS on SNU-16 cells, % cells with FITC+ [cont.].
Assay [4] shares this target. The assay can be described thus: row 'Kd (nM) (FACS)'; FACS on SNU-16 cells.
The subject of assay [5] is cells transformed with patient-derived FGFR2 having ECD activating deletion mutations. The assay can be described thus: patient-derived FGFR2 ECD mutation driven cell growth (FIG. 4F). It is filed as cell-based. The following applies: fold change from nonspecific IgG control. The text has this:
FIGS. 4A-4F present schematic diagrams, blots, images, tables and graphs showing that the FGFR2 extracellular domain is important for FGFR2 fusion driven cell growth and transformation and that patient-derived FGFR2 extracellular domain mutations increased transformation capacity. As also shown, some parental antibodies were effective in inhibiting ECD mutation driven cell growth. FIG. 4A is a graph showing that FGFR2-BICC1, FGFR2-AHCYL1, and FGFR2-PHGDH fusions grow faster compared to controls and respond to FGF ligands. The FGFR2 extracellular domain (ECD) contributes to the growth of transformed NIH3T3 cells expressing FGFR2 fusions. […] In addition, the ability of the antibodies described herein to inhibit the growth of the cells that overexpressed the ECD mutant FGFR2 fusions was assessed. […]
Expression of FGFR2-BICC1, FGFR2-AHCYL1, and FGFR2-PHGDH in NIH3T3 cells induced increased proliferation. […] By way of example, antibodies C, D, and E were effective in blocking the growth of cells having a patient-derived FGFR2 ECD activating mutation, as determined by assessing fold-increase or decrease from a nonspecific Ab (IgG) control (FIG. 4F); therefore, combinations of the binding regions of these antibodies in biparatopic antibodies may likely result in a synergistic blocking effect.

For assay [6], the target named is FGFR2b alpha IIIb antigen (UniProt P21802). The assay can be described thus: SPR (Biacore), antibody on chip, FGFR2b alpha IIIb antigen.
For assay [7], the target named is FGFR2 on SNU-16 gastric cancer cell line with FGFR2 amplification (UniProt P21802). The assay can be described thus: FACS on SNU-16 cells, % No. of cells with FITC+.

B1: 2B 1.3.12 (antibody, V domains shown)
VH: EVQLVESGGGLVQPGGSLRLSCAASGFPFTSTGISWVRQAPGKGLEWVGRTHLGDGSTNYADSVKGRFTISADTSKNTAYLQMNSLRAEDTAVYYCARTYGIYDTYDMYTEYVMDYWGQGTLVTVSS
VL: DIQMTQSPSSLSASVGDRVTITCRASQDVDTSLAWYKQKPGKAPKLLIYSASFLYSGVPSRFSGSGSGTDFTLTISSLQPEDFATYYCQQSTGHPQTFGQGTKVEIK
notes: the duobody scheme implies IgG1 with K409R or F405L; also called Antibody D; GE
For the molecule B1, the Kd in assay [1] worked out at 1.78 nM; in assay [4] it was 1.78 nM; in assay [6], 0.99 nM. Moreover, the Binding Stoichiometry in assay [2] turned out to be 1.9. Also, the EC50 (read off the curve) in assay [3] and in assay [7] was 0.3 µg/mL each time. Moreover, the “blocking growth of cells having a patient-derived FGFR2 ECD activating mutation” value in assay [5] is on record as “effective”.
